# Experiments:
# [1] = target: GST protein (glutathione S-transferase alone) (UniProt P08515 1-218 = GST); assay: GST pull-down, autoradiography
# Method: Proteins were isolated by incubating E. coli samples in isotonic lysis buffer (10 mM potassium phosphate pH 8.0, 140 mM KCl, 3 mM MgCl_2, 1 mM DTT, 0.5% Nonidet P-40, 0.5 mM PMSF) for 15 min on wet ice, followed by brief sonication. Protein product sizes were verified by electrophoresing pre- and post-induction protein samples on 10% SDS-polyacrylamide gels, followed by Coomassie Brilliant Blue staining. Post-induction protein extracts were incubated with glutathione-agarose (Sigma) which had been previously saturated in 0.5% (w/v) BSA (fraction V, Boehringer-Mannheim). Recombinant proteins (2–5 μg) bound to 30 μl glutathione agarose were then incubated with 7 μl of each in vitro translation reaction, and 2.6 mg soluble BL21 protein extract, prepared as described in Ausubel, F. M., el al., *Current Protocols in Molecular Biology* Vol. 3 (1996), for 2 h at 4° C. Matrixes were washed 3 times with 1 ml cold buffer (50 mM potassium phosphate pH 7.5, 150 mM KCl, 10 mM MgCl_2, 10% (v/v) glycerol, 1% Triton X-100, 0.5 mM PMSF), and bound proteins were eluted in 12 μl SDS-loading buffer (50 mM Tris pH 6.8, 2% (w/v) SDS, 10% (v/v) glycerol, 10% (v/v) 2-mercaptoethanol) by boiling for 5 min. Eluted proteins (6 μl) were separated on 10% SDS-polyacrylamide gels, which were stained with Coomassie Brilliant Blue, dried, and exposed to autoradiographic film (BioMax, Kodak) for 10 days at −80° C.
# [2] = target: T1, hD53 bait (GAL4 DNA-binding domain fusion, pAS2-1hD53) (human, UniProt P04386 1-147 (Saccharomyces cerevisiae entry)); assay: yeast two-hybrid screening of a human breast carcinoma cDNA library in Y190 (His+ lacZ+)
# T1 construct: Fusion expressed in yeast; also called full-length hD53 bait
# [3] = target: T2, hD52 bait (GAL4 DNA-binding domain fusion, pAS2-1hD52) (human, UniProt P04386 1-147 (Saccharomyces cerevisiae entry)); assay: yeast two-hybrid, Y190 co-transfectants, HIS3/lacZ reporters; interactor (GAL4-AD fusion) against bait (GAL4-DB fusion)
# T2 construct: Fusion expressed in yeast; also called full-length hD52 bait
# Method: (§1) Interactions between baits and interactors were assessed by qualitatively and/or quantitatively determining HIS3 and/or lacZ reporter gene activity in Y190 co-transfectants.
# (§2) Interactions between D52-like proteins within the yeast two-hybrid system, as measured by quantitative β-galactosidase assays. […] Three (or two*) colonies from each co-transfected Y190 strain were cultured in the absence of histidine, and assayed separately for β-galactosidase activity (see Methods). The mean number of β-galactosidase activity units obtained for each co-transfection is presented, ± the standard error.
# [4] = target: T1, hD53 bait (GAL4 DNA-binding domain …); assay: as above
# Method: as §1, §2
# [5] = target: T3, hD54+ins2 bait (GAL4 DNA-binding domain fusion, pAS2-1hD54+ins2) (human, UniProt P04386 1-147 (Saccharomyces cerevisiae entry)); assay: as above
# T3 construct: Fusion expressed in yeast
# Method: as §1, §2
# [6] = target: T4, hD54-ins2 bait (GAL4 DNA-binding domain fusion, pAS2-1hD54-ins2) (human, UniProt P04386 1-147 (Saccharomyces cerevisiae entry)); assay: as above
# T4 construct: Fusion expressed in yeast
# Method: as §1, §2
# GST protein (glutathione S-transferase alone), sequence (P08515 whole entry): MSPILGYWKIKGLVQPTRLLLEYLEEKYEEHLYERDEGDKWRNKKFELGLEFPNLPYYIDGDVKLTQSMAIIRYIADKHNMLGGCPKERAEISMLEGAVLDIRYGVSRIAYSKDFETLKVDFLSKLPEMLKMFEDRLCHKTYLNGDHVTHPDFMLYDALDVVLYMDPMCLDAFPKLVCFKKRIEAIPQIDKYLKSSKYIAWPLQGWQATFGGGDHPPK
binding result [1],binding result [2],binding result [3],binding result [4],binding result [5],binding result [6],Binder
no binding,,,,,,"in vitro-translated 35S-labelled hD52 (pTL1hD52) (other, 35S-methionine label) MDRGEQGLLRTDPVPEEGEDVAATISATETLSEEEQEELRRELAKVEEEIQTLSQVLAAKEKHLAEIKRKLGINSLQELKQNIAKGWQDVTATSAYKKTSETLSQAGQKASAAFSSVGSVITKKLEDVKNSPTFKSFEEKVENLKSKVGGTKPAGGDFGEVLNSAANASATTTEPLPEKTQESL"
,binds,,,,,"+5 hD53 library interactor (novel hD53 isoform, pAD-GAL4 clone) (other, range 761-881; also called nt 1 (Ser^1)) PSALFGGANFNQSGNIADSSLSFTFTNSSNGPNLITTQTNSQALSQPIASSNVHDNFMNNEITASKIDDGNNSKPLSPGWTDQTAYNAFGITTGMFNTTTMDDVYNYLFDDEDTPPNPKKESSWLPWSEVLHRPWRNHPICLLETEPLQGTDEDAVASADFSSMLSEEEKEELKAELVQLEDEITTLRQVLSAKERHLVEIKQKLGMNLMNELKQNFSKSWHDMQTTTAYKKTHETLSHAGQKATAAFSNVGTAISKKFGDMRRK"
,,binds,binds,binds,binds,"mD52(1-163) interactor (GAL4 activation domain fusion, pACT2mD52(1-163)) (other, range 768-881) ANFNQSGNIADSSLSFTFTNSSNGPNLITTQTNSQALSQPIASSNVHDNFMNNEITASKIDDGNNSKPLSPGWTDQTAYNAFGITTGMFNTTTMDDVYNYLFDDEDTPPNPKKEMDRGEQGLLKTEPVAEEGEDAVTMLSAPEALTEEEQEELRRELTKVEEEIQTLSQVLAAKEKHLAELKRKLGISSLQEFKQNIAKGWQDVTATNAYKKTSETLSQAGQKASAAFSSVGSVITKKLEDVKNSPTFKSFEEKVENLKSKVGGAKPAGGDFGEVLN"
,,binds,binds,binds,binds,"hD54-ins2 interactor (GAL4 activation domain fusion, pACT2hD54-ins2) (other, range 768-881) ANFNQSGNIADSSLSFTFTNSSNGPNLITTQTNSQALSQPIASSNVHDNFMNNEITASKIDDGNNSKPLSPGWTDQTAYNAFGITTGMFNTTTMDDVYNYLFDDEDTPPNPKKEMDSAGQDINLNSPNKGLLSDSMTDVPVDTGVAARTPAVEGLTEAEEEELRAELTKVEEEIVTLRQVLAAKEKHCGELKRRLGLSTLGELKQNLSRSWHDVQVSSAYKKTQETLSQAGQKTSAALSTVGSAISRKLGDMRNSATFKSFEDRVGTIKSKVVGDRENGSDNLPSSAGSGDKPLSDPAPF"
no binding,,,,,,"in vitro-translated 35S-labelled hD54-ins2 (pTL1hD54-ins2) (other, 35S-methionine label) MDSAGQDINLNSPNKGLLSDSMTDVPVDTGVAARTPAVEGLTEAEEEELRAELTKVEEEIVTLRQVLAAKEKHCGELKRRLGLSTLGELKQNLSRSWHDVQVSSAYKKTQETLSQAGQKTSAALSTVGSAISRKLGDMRNSATFKSFEDRVGTIKSKVVGDRENGSDNLPSSAGSGDKPLSDPAPF"
,,binds,binds,binds,binds,"hD53 interactor (GAL4 activation domain fusion, pACT2hD53) (other, range 768-881) ANFNQSGNIADSSLSFTFTNSSNGPNLITTQTNSQALSQPIASSNVHDNFMNNEITASKIDDGNNSKPLSPGWTDQTAYNAFGITTGMFNTTTMDDVYNYLFDDEDTPPNPKKEMEAQAQGLLETEPLQGTDEDAVASADFSSMLSEEEKEELKAELVQLEDEITTLRQVLSAKERHLVEIKQKLGMNLMNELKQNFSKSWHDMQTTTAYKKTHETLSHAGQKATAAFSNVGTAISKKFGDMSYSIRHSISMPAMRNSPTFKSFEERVETTVTSLKTKVGGTNPNGGSFEEVLSSTAHASAQSLAGGSRRTKEEELQC"
,binds,,,,,"hD53 library interactor, pAD-GAL4 clone beginning at nt 111 of the hD53 cDNA (<Met1) (other, range 761-881; also called nt 111 (<Met^1)) PSALFGGANFNQSGNIADSSLSFTFTNSSNGPNLITTQTNSQALSQPIASSNVHDNFMNNEITASKIDDGNNSKPLSPGWTDQTAYNAFGITTGMFNTTTMDDVYNYLFDDEDTPPNPKKEMEAQAQGLLETEPLQGTDEDAVASADFSSMLSEEEKEELKAELVQLEDEITTLRQVLSAKERHLVEIKQKLGMNLMNELKQNFSKSWHDMQTTTAYKKTHETLSHAGQKATAAFSNVGTAISKKFGDMSYSIRHSISMPAMRNSPTFKSFEERVETTVTSLKTKVGGTNPNGGSFEEVLSSTAHASAQSLAGGSRRTKEEELQC"
,binds,,,,,"hD53 library interactor, pAD-GAL4 clone beginning at nt 81 of the hD53 cDNA (<Met1) (other, range 761-881; also called nt 81 (<Met^1)) PSALFGGANFNQSGNIADSSLSFTFTNSSNGPNLITTQTNSQALSQPIASSNVHDNFMNNEITASKIDDGNNSKPLSPGWTDQTAYNAFGITTGMFNTTTMDDVYNYLFDDEDTPPNPKKEMEAQAQGLLETEPLQGTDEDAVASADFSSMLSEEEKEELKAELVQLEDEITTLRQVLSAKERHLVEIKQKLGMNLMNELKQNFSKSWHDMQTTTAYKKTHETLSHAGQKATAAFSNVGTAISKKFGDMSYSIRHSISMPAMRNSPTFKSFEERVETTVTSLKTKVGGTNPNGGSFEEVLSSTAHASAQSLAGGSRRTKEEELQC"
,binds,binds,,binds,binds,"hD52 interactor (GAL4 activation domain fusion, pAD-GAL4hD52) (other, range 761-881; also called hD52^c) PSALFGGANFNQSGNIADSSLSFTFTNSSNGPNLITTQTNSQALSQPIASSNVHDNFMNNEITASKIDDGNNSKPLSPGWTDQTAYNAFGITTGMFNTTTMDDVYNYLFDDEDTPPNPKKEMDRGEQGLLRTDPVPEEGEDVAATISATETLSEEEQEELRRELAKVEEEIQTLSQVLAAKEKHLAEIKRKLGINSLQELKQNIAKGWQDVTATSAYKKTSETLSQAGQKASAAFSSVGSVITKKLEDVKNSPTFKSFEEKVENLKSKVGGTKPAGGDFGEVLNSAANASATTTEPLPEKTQESL"
no binding,,,,,,"in vitro-translated 35S-labelled mD52 (pTL1mD52) (other, 35S-methionine label) MDRGEQGLLKTEPVAEEGEDAVTMLSAPEALTEEEQEELRRELTKVEEEIQTLSQVLAAKEKHLAELKRKLGISSLQEFKQNIAKGWQDVTATNAYKKTSETLSQAGQKASAAFSSVGSVITKKLEDVKNSPTFKSFEEKVENLKSKVGGAKPAGGDFGEVLNSTANATSTMTTEPPPEQMTESP"
,,binds,binds,binds,binds,"hD54+ins2 interactor (GAL4 activation domain fusion, pACT2hD54+ins2) (other, range 768-881) ANFNQSGNIADSSLSFTFTNSSNGPNLITTQTNSQALSQPIASSNVHDNFMNNEITASKIDDGNNSKPLSPGWTDQTAYNAFGITTGMFNTTTMDDVYNYLFDDEDTPPNPKKEMDSAGQDINLNSPNKGLLSDSMTDVPVDTGVAARTPAVEGLTEAEEEELRAELTKVEEEIVTLRQVLAAKEKHCGELKRRLGLSTLGELKQNLSRSWHDVQVSSAYVKTSEKLGEWNEKVTQSDLYKKTQETLSQAGQKTSAALSTVGSAISRKLGDMRNSATFKSFEDRVGTIKSKVVGDRENGSDNLPSSAGSGDKPLSDPAPF"

# Source: patent US6458943 (INSTITUT NATIONAL DE LA SANTE ET DE LA RECHERCHE MEDICALE, dated 2002)
